Assay [1] has as its system NIH3T3 cells (cGMP secreted). The experiment in a line: EC50 for CNP-Fc constructs, cGMP ELISA of NIH3T3 supernatant. Conditions: NIH3T3, 30 minutes, 1.8 mM IBMX, cGMP secreted by the cells; FIG. 25B. Type of assay: cell-based. As to the method: EC50 for CNP-Fc described herein were measured by ELISA. 2.5E+05 NIH3T3 cells/well were plated. […] After 30 minutes, supernatant was collected for cGMP determined via ELISA. FIG. 25A illustrates a standard curve of cGMP.

Assay [2] addresses T1, NPR-B on NIH/3T3 cells (NPR-B receptor positive cell line) (UniProt Q6VVW5 17-1047, limits assumed).
T1 sequence (looked up): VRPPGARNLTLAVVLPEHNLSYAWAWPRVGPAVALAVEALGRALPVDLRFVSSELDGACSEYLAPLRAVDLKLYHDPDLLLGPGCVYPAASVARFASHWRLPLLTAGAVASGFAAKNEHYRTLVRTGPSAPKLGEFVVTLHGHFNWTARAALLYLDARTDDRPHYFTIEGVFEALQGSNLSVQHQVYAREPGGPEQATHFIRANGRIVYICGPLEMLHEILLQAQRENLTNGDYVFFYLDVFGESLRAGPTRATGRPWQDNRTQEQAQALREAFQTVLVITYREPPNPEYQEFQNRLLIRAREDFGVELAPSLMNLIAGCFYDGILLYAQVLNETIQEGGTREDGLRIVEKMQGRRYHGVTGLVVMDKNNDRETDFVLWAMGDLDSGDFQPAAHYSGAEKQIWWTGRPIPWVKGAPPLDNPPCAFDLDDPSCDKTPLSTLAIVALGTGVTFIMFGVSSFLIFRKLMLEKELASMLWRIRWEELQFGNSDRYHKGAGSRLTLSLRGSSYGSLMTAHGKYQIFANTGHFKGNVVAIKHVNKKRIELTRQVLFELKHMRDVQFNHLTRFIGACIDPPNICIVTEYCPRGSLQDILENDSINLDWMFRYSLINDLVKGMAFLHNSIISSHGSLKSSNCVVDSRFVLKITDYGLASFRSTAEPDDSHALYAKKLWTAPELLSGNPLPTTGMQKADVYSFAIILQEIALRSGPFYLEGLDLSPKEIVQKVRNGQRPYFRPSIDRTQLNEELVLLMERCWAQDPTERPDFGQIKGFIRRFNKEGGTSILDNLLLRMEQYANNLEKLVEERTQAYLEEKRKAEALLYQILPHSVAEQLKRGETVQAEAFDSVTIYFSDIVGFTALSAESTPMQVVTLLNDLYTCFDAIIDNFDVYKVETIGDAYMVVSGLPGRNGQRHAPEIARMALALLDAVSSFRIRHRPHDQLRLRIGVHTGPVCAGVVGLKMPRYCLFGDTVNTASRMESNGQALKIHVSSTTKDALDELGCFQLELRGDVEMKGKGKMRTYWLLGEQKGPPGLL
The experiment in a line: cell-based or functional assay.

The results in this text go back to patent US20250099622A1, “COMPOSITIONS AND METHODS FOR EXPRESSING THERAPEUTICS” (priority 2022, published 2025).

With “AMI269: fusion protein Fc4-(G4S)4-CNP22, SEQ ID NO: 136”, the “EC50 values (rank order)” value in assay [1] is listed as “CNP-22 ≡Fc4-CNP36>Aflibercept-Fc4-CNP36>Fc1-CNP36>>Fc4-CNP22”. SLRRSSCFGGRMDRIGAQSGLGCNSFRY (peptide, UniProt P01160 124-151, looked up) [ANP]: in assay [2], the “EC50 (cGMP production, drawn table, row ANP)” value turned out to be 112 nM and the “EC50 (read off the curve), cGMP production” value is approximately 100 nM.
